Among the data in US20240182563A1 (GENOME, published 2024) are EC50 and Shift % values, retold here.

The labels stand for the following.
B1: anti-CNTN4 IgG A13WB2 (antibody, V domains shown)
VH: AVTLDESGGGLHTPGGALSLVCKASGFTFSSYGMAWVRQAPGKGLEWVAGITSSGSSAGYGPAVKGRATISRDNGQSTVRLQLNNLRAEDTATYYCAKDGYIYSGADSDSIDAWGHGTEVIVSS
VL: ALTQPSSVSANLGGTVEITCSGGYSGYGWYQQKSPGSAPVTLIYYNDKRPSDIPSRFSGSKSGSTGTLTITGVQAEDEAVYFCGSRDSSTYVDIFGAGTTLTVL
notes: human IgG4 (S228P)
B2: anti-CNTN4 IgG A13WB73 (antibody, V domains shown)
VH: B1 VH with A17V
VL: ALTQPSSVSANLGGTVEITCSGGYSGYGWYQQMSPGSAPVTLTYYNDKRPSNIPSRFSGSKSGSTATLAITGVQAEDEAVYYCGSWDTSTNTPIFGAGTTLTVL
notes: human IgG4 (S228P)
B3: anti-CNTN4 IgG A13SF7 (antibody, V domains shown)
VH: B1 VH
VL: ALTQPSSVSANLGGTVEITCSGGSGSYGWYQQKSPGSAPVTLIYDNTNRPSNIPSRFSGSTSGSTSTLTITGVQADDEAVYFCGSADTNAAYAAIFGAGTTLTVL
notes: human IgG4 (S228P)
B4: anti-CNTN4 IgG A13SF2 (antibody, V domains shown)
VH: B1 VH with H12Q, V21I
VL: ALTQPSSVSANLGGTVKITCSGGGGSYGWYRQKSPGSAPVTLIYNNNNRPSDIPSRFSGSTSGSTGTLTITGVQADDEAVYFCGGYDSSAGYAALFGAGTTLTVL
notes: human IgG4 (S228P)
B5: anti-CNTN4 IgG A13WB7 (antibody, V domains shown)
VH: B1 VH
VL: ALTQPSSVSANPGETVKITCSGGGSSSYYNYGWYQQKSPGSAPVTVIYYNDKRPSDIPSRFSGSKSGSTGTLTITGVQAEDEAVYYCGSWDSSTYSDIFGAGTTLTVL
notes: human IgG4 (S228P)
B6: anti-CNTN4 IgG A13SF8 (antibody, V domains shown)
VH: B1 VH
VL: ALTQPSSVSANPGGTVKITCSGSGNYGWYQQKSPGSALVTVIYYNDKRPSDIPSRFSGSTSGSTGTLTITGVQVEDEAVYYCGGYDGYSFASIFGAGTTLTVL
notes: human IgG4 (S228P)
B7: anti-CNTN4 IgG A35SF8 (antibody, V domains shown)
VH: B1 VH
VL: ALTQPSSVSANLGGTVKITCSGGGGSYGWFQQKSPGSAPVTLIYNNNNRPSDIPSRFSGSKSGSTATLTITGVQAEDEAVYFCGGYDDSTYVGMFGAGTTLTVL
notes: human IgG4 (S228P)
B8: anti-CNTN4 IgG A13WB4 (antibody, V domains shown)
VH: B1 VH
VL: ALTQPSSVSANPGETVEITCSGGSSDYGYGWYQQKSPGSAPVTVIYYNNNRPSDIPSRFSGSLSGSTNTLTITGVQADDEAVYFCGSRDSSSGYVDIFGAGTTLTVL
notes: human IgG4 (S228P)
B9: anti-CNTN4 IgG A13WB24 (antibody, V domains shown)
VH: B1 VH
VL: ALTQPSSVSANPGGTVEITCSGGGNNNYGWYQQKSPGSAPVTLIYYNDNRPSDIPSRFSGSKSGSTATLTITGVQAEDEAVYYCGGYDISYVDIFGAGTTLTVL
notes: human IgG4 (S228P)
B10: anti-CNTN4 IgG A13SF21 (antibody, V domains shown)
VH: B1 VH
VL: ALTQPSSVSANLGGTVEITCSGSSGSYGWYQQKAPGSAPVTVIYNNNNRPSGIPSRFSGALSGSTATLTITGVQAEDEAVYFCGGYDSSTYVGIFGAGTTLTVL
notes: human IgG4 (S228P)
B11: anti-CNTN4 IgG A13SF16 (antibody, V domains shown)
VH: B1 VH with H12Q, A17G
VL: B7 VL with G23S, N47D, D88S, G93D, M94T
notes: human IgG4 (S228P)
B12: anti-CNTN4 IgG A35SF14 (antibody, V domains shown)
VH: B1 VH
VL: B7 VL with L12P, G14E, V16I, F30Y, L42V, N46G, D88S, S89G, V92S, M94I
notes: human IgG4 (S228P)
B13: anti-CNTN4 IgG A13WB25 (antibody, V domains shown)
VH: B1 VH
VL: B1 VL with Y24G, S25G, G26S, L42V, S85G, R86Y, S88G, V92A, D93G
notes: human IgG4 (S228P)
B14: anti-CNTN4 IgG A35SF38 (antibody, V domains shown)
VH: B1 VH
VL: B10 VL with E17K, I18L, A34S, V42L, G52D, A60S, L61T, A66G, Q74R, G93A
notes: human IgG4 (S228P)
B15: anti-CNTN4 IgG A13SF1 (antibody, V domains shown)
VH: B1 VH with H12Q, A17G
VL: B7 VL with D88S, M94T
notes: human IgG4 (S228P)

Numbering of substitutions follows the chain as printed. Numbers in names are those of the source.

One assay has as its target T1, human CNTN4-rabbit Fc (human; rabbit, UniProt Q8IWV2 19-1000, limits assumed).
T1 construct: not shown: rabbit Fc
T1 sequence (looked up): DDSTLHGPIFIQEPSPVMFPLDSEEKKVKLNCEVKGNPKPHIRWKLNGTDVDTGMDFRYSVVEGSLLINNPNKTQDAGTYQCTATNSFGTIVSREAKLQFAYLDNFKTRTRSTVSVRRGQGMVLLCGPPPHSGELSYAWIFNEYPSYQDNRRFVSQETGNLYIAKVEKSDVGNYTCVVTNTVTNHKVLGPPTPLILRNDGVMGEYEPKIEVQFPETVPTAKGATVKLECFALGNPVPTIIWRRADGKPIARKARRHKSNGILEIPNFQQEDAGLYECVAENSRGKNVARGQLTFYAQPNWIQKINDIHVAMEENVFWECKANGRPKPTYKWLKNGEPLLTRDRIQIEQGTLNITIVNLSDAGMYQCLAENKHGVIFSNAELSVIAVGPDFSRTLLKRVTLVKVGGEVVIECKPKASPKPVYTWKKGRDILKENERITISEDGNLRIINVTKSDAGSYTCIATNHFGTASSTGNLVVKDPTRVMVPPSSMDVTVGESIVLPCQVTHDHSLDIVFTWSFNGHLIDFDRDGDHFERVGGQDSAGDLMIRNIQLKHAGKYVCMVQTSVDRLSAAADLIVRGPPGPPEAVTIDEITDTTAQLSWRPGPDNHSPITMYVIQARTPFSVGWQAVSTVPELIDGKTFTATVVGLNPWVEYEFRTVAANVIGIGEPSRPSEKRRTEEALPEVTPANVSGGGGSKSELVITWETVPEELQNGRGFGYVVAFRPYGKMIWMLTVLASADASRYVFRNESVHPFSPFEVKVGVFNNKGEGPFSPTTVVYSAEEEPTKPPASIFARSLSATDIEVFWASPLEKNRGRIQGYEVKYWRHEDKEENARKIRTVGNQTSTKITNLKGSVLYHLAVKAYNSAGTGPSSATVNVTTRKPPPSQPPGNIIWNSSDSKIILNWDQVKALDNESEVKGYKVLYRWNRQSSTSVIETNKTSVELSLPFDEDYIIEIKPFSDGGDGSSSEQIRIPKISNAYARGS
The assay can be described thus: ELISA, plate coated with antigen-rabbit Fc, anti-human IgG Fc-HRP. As to the method:
(§1) An ELISA tests were performed on a total of 25 scFv-hCks and a total of 27 IgGs for which the expression was confirmed in Example 1.2. An ELISA plate was coated with 200 ng of antigens (human CNTN4-rabbit Fc or mouse CNTN4-rabbit Fc). 200 ng of a negative control (human antigen-rabbit Fc) for a tagging protein was used. For antibody binding, anti-CNTN4 scFv-hCk was serially diluted from a maximum of 1 μM to 0.001 nM by 1/10×each, and anti-CNTN4 IgG was serially diluted from a maximum of 10 nM to 0.00001 nM by 1/10×each, thereby binding to the antigen. Anti-human kappa-HRP or anti-human IgG Fc-HRP was used as the secondary antibody for antibody detection. Color was developed using ABTS, which is a color developing reagent, and the absorbance at 405 nm was measured.
The EC50 is the midpoint of the concentration-response curve. The low end stands for a more potent agent, the high end for a less potent agent. Molecule B1 displayed an EC50 of 0.01 nM.

B2 gave an EC50 of 0.01 nM.

With B3, the EC50 came out at 0.01 nM.

For B4, the EC50 came out at 0.01 nM.

B5 came in with a 50% effective concentration (EC50) of 0.01 nM.

On to B6, for which the EC50 came out at 0.01 nM.

Molecule B7 gave an EC50 of 0.01 nM.

B8 registered an EC50 of 0.01 nM.

As to B9, the EC50 was 0.01 nM.

Turning to B10, the concentration giving a half-maximal response (EC50) was found to be 0.01 nM.

B11 registered a concentration for a half-maximal effect (EC50) of 0.01 nM.

As for B12, a half-maximal response (EC50) required 0.01 nM.

B13: the EC50 stood at 0.01 nM.

In turn, B14 displayed an EC50 of 0.01 nM.

Molecule B15 returned an EC50 of 0.01 nM.

The target of the next assay is T2, mouse CNTN4-rabbit Fc (mouse; rabbit, UniProt Q69Z26 19-1000, limits assumed).
T2 construct: not shown: rabbit Fc
T2 sequence (looked up): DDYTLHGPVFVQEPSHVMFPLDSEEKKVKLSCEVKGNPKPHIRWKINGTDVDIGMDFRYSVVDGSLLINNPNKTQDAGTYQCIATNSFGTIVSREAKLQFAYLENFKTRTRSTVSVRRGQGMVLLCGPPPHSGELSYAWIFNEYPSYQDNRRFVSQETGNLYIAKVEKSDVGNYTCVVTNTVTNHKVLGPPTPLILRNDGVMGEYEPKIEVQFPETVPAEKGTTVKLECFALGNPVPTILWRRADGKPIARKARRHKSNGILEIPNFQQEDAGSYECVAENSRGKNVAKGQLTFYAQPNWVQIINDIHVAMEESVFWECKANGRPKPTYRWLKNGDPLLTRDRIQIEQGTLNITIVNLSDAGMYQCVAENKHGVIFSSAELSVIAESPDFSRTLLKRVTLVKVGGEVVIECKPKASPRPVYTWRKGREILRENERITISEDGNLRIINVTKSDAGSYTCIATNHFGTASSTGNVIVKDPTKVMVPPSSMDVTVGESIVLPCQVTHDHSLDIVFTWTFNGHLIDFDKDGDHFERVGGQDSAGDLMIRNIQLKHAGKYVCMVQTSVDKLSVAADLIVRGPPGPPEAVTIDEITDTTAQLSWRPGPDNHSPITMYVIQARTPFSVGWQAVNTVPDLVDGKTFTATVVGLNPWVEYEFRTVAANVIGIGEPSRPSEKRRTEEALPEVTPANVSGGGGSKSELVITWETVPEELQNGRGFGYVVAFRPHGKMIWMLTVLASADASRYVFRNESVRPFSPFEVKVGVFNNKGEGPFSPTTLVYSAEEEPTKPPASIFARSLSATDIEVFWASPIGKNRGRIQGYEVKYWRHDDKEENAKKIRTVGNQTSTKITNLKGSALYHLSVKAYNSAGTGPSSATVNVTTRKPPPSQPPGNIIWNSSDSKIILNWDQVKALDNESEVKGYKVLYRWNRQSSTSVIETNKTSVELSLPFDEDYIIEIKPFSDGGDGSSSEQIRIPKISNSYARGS
Described as above. As to the method:
as §1
The molecule B1 came in with an EC50 of 0.01 nM.

As for B2, the response was half-maximal at 0.01 nM (EC50).

B3 registered an EC50 of 0.01 nM.

As to B4, the EC50 was determined as 0.01 nM.

In the case of B5, the EC50 came to 0.01 nM.

B6 showed an EC50 of 0.01 nM.

With B7, it took 0.02 nM to reach a half-maximal effect (EC50).

Regarding B8, the EC50 is 0.01 nM.

As to B9, the EC50 was 0.01 nM.

B10 gave a concentration giving a half-maximal response (EC50) of 0.01 nM.

B11 displayed a 50% effective concentration (EC50) of 0.01 nM.

With B12, the concentration for a half-maximal effect (EC50) amounted to 0.01 nM.

In turn, B13 showed an EC50 of 0.01 nM.

With B14, the EC50 amounted to 0.01 nM.

B15 came in with an EC50 of 0.02 nM.

A further assay has as its target T3, human CNTN4 antigen expressed on the cell membrane of 293FT cells (human, UniProt Q8IWV2 19-1000).
T3 construct: whole, on cells; also called Human CNTN4 transfected cell
T3 sequence (looked up): T1 sequence (looked up)
The assay can be described thus: FACS, 293FT cells transfected with human CNTN4, 40 ug/mL, anti-hFc-PE. For orientation: In flow cytometry, cells or beads pass a laser one at a time.
With B1, the Shift % amounted to 86.6%.

For the molecule B2, the Shift % amounted to 86.4%.

With B3, the Shift % is 83.2%.

Turning to B4, the Shift % came to 83.5%.

In the case of B5, the Shift % amounted to 86.4%.

As to B6, the Shift % amounted to 90.4%.

Consider B7, for which the Shift % was found to be 80.4%.

Take B8: the Shift % is 84.7%.

For B9, the Shift % amounted to 85.1%.

On to B10, for which the Shift % was found to be 80.4%.

As for B11, the Shift % is 84.8%.

For B12, the Shift % was found to be 81.6%.

With B13, the Shift % came out at 82.4%.

Take B14: the Shift % was found to be 77.9%.

Take B15: the Shift % was found to be 83.8%.
